The target of series [1] is T1, human glucagon receptor (GCGr) (Homo sapiens, UniProt P47871).
T1 construct: expressed in transfected cells; host or cells: HEK293s or CHO cells
The experiment in a line: BSA-cAMP assay, cells expressing human glucagon receptor. Format: cell-based. The settings on record: Batch 1, read-out: hGCGr cAMP activity EC50. Background: cAMP levels reflect the balance of adenylyl cyclase and phosphodiesterase activity.

In series [2] the target is T2, mouse GLP-1 receptor (mGLP-1r) (Mus musculus, UniProt O35659).
T2 construct: expressed in transfected cells; host or cells: HEK293s or CHO cells
T2 sequence (O35659 22-463): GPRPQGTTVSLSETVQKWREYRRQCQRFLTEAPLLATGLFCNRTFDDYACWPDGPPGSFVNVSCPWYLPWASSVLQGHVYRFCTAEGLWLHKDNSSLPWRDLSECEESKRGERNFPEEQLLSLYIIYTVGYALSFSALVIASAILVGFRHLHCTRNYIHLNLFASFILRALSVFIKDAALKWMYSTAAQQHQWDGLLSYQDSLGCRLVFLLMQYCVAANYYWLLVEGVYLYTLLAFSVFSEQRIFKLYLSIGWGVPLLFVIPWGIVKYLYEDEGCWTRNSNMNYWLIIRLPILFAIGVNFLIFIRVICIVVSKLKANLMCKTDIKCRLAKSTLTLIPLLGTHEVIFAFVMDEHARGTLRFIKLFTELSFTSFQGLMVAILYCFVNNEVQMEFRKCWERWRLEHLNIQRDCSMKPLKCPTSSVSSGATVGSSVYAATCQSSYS
The experiment in a line: BSA-cAMP assay, cells expressing mouse GLP-1 receptor. Format: cell-based. Put shortly:
(§1)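 EC50 is the midpoint of an unconstrained 4-parameter logistic fit to HTRF cAMP data, expressed as percent of maximal native agonist response, from two separate occasions. Rodent (mouse, rat) GLP-1R- or GIPR-expressing cells were incubated with compound 30 min at room temperature in 0.1% BSA medium, in duplicate.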

In series [3] the target is T3, rat GLP-1 receptor (rGLP-1r) (Rattus norvegicus, UniProt P32301).
T3 construct: expressed in transfected cells; host or cells: HEK293s or CHO cells
T3 sequence (P32301 22-463): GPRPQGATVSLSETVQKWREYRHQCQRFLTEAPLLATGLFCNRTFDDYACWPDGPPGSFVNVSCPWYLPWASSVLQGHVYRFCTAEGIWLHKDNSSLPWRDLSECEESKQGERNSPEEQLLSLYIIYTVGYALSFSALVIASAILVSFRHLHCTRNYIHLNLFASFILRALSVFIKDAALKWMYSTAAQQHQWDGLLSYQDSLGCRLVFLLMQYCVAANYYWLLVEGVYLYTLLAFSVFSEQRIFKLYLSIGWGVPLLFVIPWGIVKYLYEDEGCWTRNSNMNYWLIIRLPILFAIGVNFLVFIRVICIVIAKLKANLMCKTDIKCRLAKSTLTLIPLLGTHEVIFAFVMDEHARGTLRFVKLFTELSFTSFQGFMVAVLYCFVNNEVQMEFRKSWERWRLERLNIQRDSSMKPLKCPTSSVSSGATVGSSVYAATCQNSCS
The series is described as follows: BSA-cAMP assay, cells expressing rat GLP-1 receptor. Format: cell-based. Summed up:
as §1

The nature of series [4]: Preliminary pharmacokinetics in mouse, serum activity at hGLP-1r by cAMP assay. Format: in vivo. The settings on record: 1 mg/kg subcutaneously, C57 Bl/6J mice, cAMP assay in HBSS/HEPES 0.1% BSA. The method, then:
Preliminary pharmacokinetics in mouse was examined as follows: C57 Bl/6J mice were injected with 1 mg/kg (subcutaneously) with either IP088 or GLP1a-Fc, and serum samples were taken over time (3 animals per time point). The serum samples were then measured for activity at the hGLP-1r by the cAMP assay in HBSS/HEPES 0.1% BSA, as described above.

A short description of series [5]: Extended pharmacokinetics, serum ELISA for protein (Fc) detection. The settings on record: 1 mg/kg subcutaneously or intravenously, serum out to 168 hours. The class given is in vivo, CD male rats. As for the experimental part: More extended pharmacokinetic assays to determine protein stability and activity were performed as follows. CD male rats (n=3) were injected subcutaneously or intravenously with 1 mg/kg IP088 or GLP1a-Fc. Periodic serum samples were obtained out to 168 hours. The serum samples were subjected to ELISA for protein (Fc) detection by the following method. ELISA plates (Costar 3690) were coated with Mouse anti-human IgG (JCD-10) 1/500 in PBS (final concentration 1 μg/ml). […] was added to each well and the plates were incubated overnight at 4° C. Following washing with PBS-Tween (PBS-T), the plates were blocked with […] 1% BSA in PBS for 1 h at RT with gentle shaking. Following washing with PBS-T, standards, and dilutions of […] samples were added (50 μl/well), and the plate was incubated for 2 h at RT with gentle shaking. Following washing […] biotinylated mouse anti-human IgG (JCD-10) diluted 1/1000 in ELISA incubation buffer (final concentration 0.5 μg/ml) was added to each well and the plates were incubated for 1 h at RT with gentle shaking. Following washing […] of Streptavidin-HRP diluted 1/1000 in ELISA incubation buffer was added to each well, and the plates were incubated for 45 min at RT with gentle shaking. […]
(ELISA stands for enzyme-linked immunosorbent assay.)

Where only a bound is given, the exact number is not on record here.

Consider two molecules from patent publication US20160185837A1 (Medimmune Limited, priority 2013, published 2016).

T1 sequence (P47871 26-477): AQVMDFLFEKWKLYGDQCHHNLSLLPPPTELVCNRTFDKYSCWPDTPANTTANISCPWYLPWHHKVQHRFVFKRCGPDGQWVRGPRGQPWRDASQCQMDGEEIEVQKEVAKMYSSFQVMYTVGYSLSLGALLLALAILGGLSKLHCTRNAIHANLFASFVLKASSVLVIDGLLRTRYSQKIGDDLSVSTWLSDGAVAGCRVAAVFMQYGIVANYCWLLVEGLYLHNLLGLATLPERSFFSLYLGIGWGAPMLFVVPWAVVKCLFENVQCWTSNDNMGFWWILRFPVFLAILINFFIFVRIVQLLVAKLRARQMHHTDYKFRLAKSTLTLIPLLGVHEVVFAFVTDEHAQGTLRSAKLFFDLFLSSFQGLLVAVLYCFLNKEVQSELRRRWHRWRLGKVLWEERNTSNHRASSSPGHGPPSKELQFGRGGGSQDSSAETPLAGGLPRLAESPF

B1: IP367 (protein)
chain: YSEGTFTSDYRILKERQAIDEFIAWLLKGGAAAGGSGSTASSGSGSATGGGGAATHTCPPC
What is called EC50 is the concentration needed to bring the measured effect to its halfway point. For B1, the 50% effective concentration (EC50) was above 1300 nM in series [1]; 390 nM in series [2] (Batch 1, BSA-cAMP assay, read-out: mGLP1r cAMP activity EC50); 8 nM in series [3] (Batch 1, BSA-cAMP assay, read-out: rGLP1r cAMP activity EC50).

B2: IP088: Fc fusion, IgG1-TM, SEQ ID NO:105; agonist peptide YSEGTFTSDYSKLLEEEAVRLFIEWLVKGP (SEQ ID NO:15) (protein)
chain: YSEGTFTSDYSKLLEEEAVRLFIEWLVKGPAAAGGSGSTASSGSGSATGGGGAATHTCPPCPAPEF
modifications: also: Fc fusion, IgG1-TM
Turning to B2, the “potency for GLP-1r, in words” value in series [2] (mouse receptor) and in series [3] (rat receptor) was “high potency” in each case. Further, in series [4], the “time for which serum activity at hGLP-1r is maintained in the nanomolar range in vivo” value is on record as “at least 48 hours”. In addition, the “PK profile by Fc ELISA (Cmax, bioavailability, half-life), in words” value in series [5] is recorded as “equivalent PK profiles”.
